We go through 83 variants from the RNAGym collection of RNA variant scans (doi:10.1073/pnas.2313332121).

First the molecules themselves.
B1: TPR t1 (parent)
chain: GACCAAUCUGCCCUCAGAGCUCGAGAACAUCUUCGGAUGCAGAGGAGGCAGGCUUCGGUGGCGCGAUAGCGCCAACGUCCUCAACCUCCAAUGCAUCCCACCACAUGAUGAUGCCUGAAGAGCCUUGGUUUUUUG

In this data set the parent is B1. As to the kind of experiment: polymerase ribozyme fitness, log enrichment relative to wild type (log ratio); higher = more active; in vitro selection for triplet polymerase activity. Put shortly:
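A single round of triplicate in vitro selection, including frozen incubation at −7 °C, was applied to PCR-built, transcribed mutant libraries of each subunit of a heterodimeric triplet polymerase ribozyme. Illumina sequencing of input and output libraries retained genotypes with ≥10 input reads and ≥1 read per output. Fitness is the base-2 logarithm of genotype enrichment divided by wild-type enrichment, from inverse-variance-weighted replicate averages.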
For the variant C11U G93A, the “polymerase ribozyme fitness (log ratio)” value was -0.986.
As to G57U U116C, the “polymerase ribozyme fitness (log ratio)” value is -1.31.
Take A119G G120A: the “polymerase ribozyme fitness (log ratio)” value was found to be 1.35.
Consider C12G A26U C114A, for which the “polymerase ribozyme fitness (log ratio)” value was -6.59.
Consider C11G U126C, for which the “polymerase ribozyme fitness (log ratio)” value is -0.774.
On to A16C C82G, for which the “polymerase ribozyme fitness (log ratio)” value was -3.22.
Consider C4A A50G C70U A74G A84C C115A, for which the “polymerase ribozyme fitness (log ratio)” value was -5.12.
As for C34A G113A, the figure is -4.03; as for U9G C40A G69A C76U C114A, -6.98.
Take A24G C94A: the “polymerase ribozyme fitness (log ratio)” value is -2.52.
As for G39A U81A C88U, the “polymerase ribozyme fitness (log ratio)” value was -0.679.
To C56U A74C A91G belongs -1.72; to G48C C73U, -0.559.
On to A5U G47A C124U U126A, for which the “polymerase ribozyme fitness (log ratio)” value came to 0.649.
As to C70A A83G C85A C88U, the “polymerase ribozyme fitness (log ratio)” value is -2.53.
In the case of A6U C12U U81C, the “polymerase ribozyme fitness (log ratio)” value is -0.545.
As to G51C G52C, the “polymerase ribozyme fitness (log ratio)” value was -2.79.
As for C8U G61A C70U U87G C89G, the figure is -5.05; as for C94U U112A C124G, 1.39; as for G10U G60C G122A, 0.255.
For A26U C53U G71C A118U, the “polymerase ribozyme fitness (log ratio)” value was -3.17.
To C70G C79A belongs -4.41; to U14A C72G, -2.35.
To U109A C123U belongs -3.85; to U54G C104G, -7.42; to G10U U14A U116C A121C, -4.9.
In the case of A5U A83U G120U U129C, the “polymerase ribozyme fitness (log ratio)” value is -1.35.
C88G C124G: the “polymerase ribozyme fitness (log ratio)” value was 1.77.
Take C40A U131A: the “polymerase ribozyme fitness (log ratio)” value is -1.11.
With C12U C15A U125G U133A, the “polymerase ribozyme fitness (log ratio)” value was -1.18.
Take G71C A121U: the “polymerase ribozyme fitness (log ratio)” value is 0.296.
On to U32C G36A U92A A105U C123A C124G, for which the “polymerase ribozyme fitness (log ratio)” value is -5.91.
Turning to A121G G135U, the “polymerase ribozyme fitness (log ratio)” value was determined as 0.495.
With A41U G51U C62U, the “polymerase ribozyme fitness (log ratio)” value was -5.82.
As for C53A G71A C85A, the figure is -4.06; as for U21G G45U U92G, -5.73; as for A16C G71C U126C U131A, -4.45.
As for C8A C11A G51U, the figure is -2.89; as for A2U G45U, -3.96; as for C4G G69A, -2.97.
Take C12G C34A: the “polymerase ribozyme fitness (log ratio)” value is -2.33.
On to U33A C72U, for which the “polymerase ribozyme fitness (log ratio)” value was -4.34.
Regarding G19U A43U A74U, the “polymerase ribozyme fitness (log ratio)” value was -3.22.
Take A2U A6G U92C A121C: the “polymerase ribozyme fitness (log ratio)” value is -0.755.
G45C C62A: the “polymerase ribozyme fitness (log ratio)” value is -2.24.
As for G58C G71U A74G C85A A90C, the figure is -3.43; as for C8A C13G G17C C82U, -4; as for C4G G48U C70U, -3.27.
Take U14A A50G: the “polymerase ribozyme fitness (log ratio)” value was -2.52.
As to G61A A91C C94G A105C U109A A119C, the “polymerase ribozyme fitness (log ratio)” value is -7.38.
As for G17A G63A C82U, the figure is -5.43; as for C15A A74G U78G C79U G110U, -3.12.
Turning to C40U G60C, the “polymerase ribozyme fitness (log ratio)” value was -0.857.
For the variant C73A A118G, the “polymerase ribozyme fitness (log ratio)” value worked out at 0.164.
Regarding C20G C56U C123A, the “polymerase ribozyme fitness (log ratio)” value was -5.13.
In the case of A27G C53U C72A C102U, the “polymerase ribozyme fitness (log ratio)” value is -3.85.
As for A5U C114A, the “polymerase ribozyme fitness (log ratio)” value is -1.69.
With G113C G122A G135U, the “polymerase ribozyme fitness (log ratio)” value is -4.5.
Take C3G G39A G51U G69U C79A U130G: the “polymerase ribozyme fitness (log ratio)” value was -3.
Regarding G63U G117U, the “polymerase ribozyme fitness (log ratio)” value is -2.02.
As for C79U G113A, the “polymerase ribozyme fitness (log ratio)” value was -1.38.
To G58A C79A belongs -1; to G61C C114G, -4.27.
Take C8A G10U U14G C56A C64U U78A C86A C101U: the “polymerase ribozyme fitness (log ratio)” value is -2.72.
Regarding A91C U125A, the “polymerase ribozyme fitness (log ratio)” value is -2.71.
Turning to C70A A100U, the “polymerase ribozyme fitness (log ratio)” value was -2.07.
For the variant C11G G120U, the “polymerase ribozyme fitness (log ratio)” value was 1.37.
As for C11G G120C, the figure is 1.89; as for U7A C56A G65C G71A, -7.51; as for G63U C94A A121C, -0.515.
With U21A G45U C101U U106C, the “polymerase ribozyme fitness (log ratio)” value is -4.17.
To C94G A100U G120A belongs -0.669.
As for G36A C49U C64U C86G U92C, the figure is -6.86; as for U7G C22U G42A G47C G60C U87G U92C, -7.02; as for C8A A27G C56U C62U, -1.49.
Regarding C4G C22U G23A A66U A83G C97G C99U U106A G113U C124A, the “polymerase ribozyme fitness (log ratio)” value is -7.47.
Consider G10A G44A G63C, for which the “polymerase ribozyme fitness (log ratio)” value is -0.955.
Turning to A74C A90U, the “polymerase ribozyme fitness (log ratio)” value was -0.572.
As for G48U U112A, the “polymerase ribozyme fitness (log ratio)” value stood at 0.632.
G47U A105G: the “polymerase ribozyme fitness (log ratio)” value was -3.69.
As to A37C G48C, the “polymerase ribozyme fitness (log ratio)” value was -1.64.
For G63U G127A, the “polymerase ribozyme fitness (log ratio)” value is -2.25.
To C11U C20A U87A A91C A118U belongs -2.95.
